Results from patent US20260226144A1 (NEPHRIS, published 2026).
Substitutions are numbered along the chain they refer to.

T1: native human NBL1 (human, UniProt P41271 17-181, limits assumed)
T1 construct: Endogenous protein in permeabilized PBMCs of healthy volunteers; also called native human NBL1 found in human PBMCs
T1 sequence (looked up): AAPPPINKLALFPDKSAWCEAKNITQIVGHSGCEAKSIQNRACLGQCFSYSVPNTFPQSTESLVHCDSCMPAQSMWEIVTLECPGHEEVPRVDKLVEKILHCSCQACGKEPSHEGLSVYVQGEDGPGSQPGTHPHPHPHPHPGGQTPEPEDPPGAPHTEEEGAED

T2: mouse NBL1 (mouse, UniProt Q61477 17-178, limits assumed)
T2 sequence (looked up): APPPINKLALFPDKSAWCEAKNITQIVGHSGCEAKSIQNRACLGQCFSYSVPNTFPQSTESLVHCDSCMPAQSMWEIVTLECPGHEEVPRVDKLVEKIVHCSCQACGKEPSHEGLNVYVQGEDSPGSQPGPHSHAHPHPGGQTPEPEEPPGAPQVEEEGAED

T3: native murine NBL1 (murine, UniProt Q61477 17-178)
T3 construct: Endogenous protein, not recombinant; also called murine plasma NBL1; murine splenocyte NBL1
T3 sequence (looked up): T2 sequence (looked up)

B1: Antibody YU1019-A12 (antibody, human IgG1, V domains shown)
VH: EVQLLESGPGLVKPSQTLSLTCTVSGGSISSGDYYWSWIRQPPGKGLEWIGYIYYSGSTYYNPSLKSRVTISVDTSKNQFSLKLSSVTAADTAVYYCARGRRLLLFHWGQGTTVTVSS
VL: QSVLTQPPSVSAAPGQKVTISCSGSGSSIGNNYVSWYQQVPGTPPKLLIYDNNKRASGIPDRFSGSKSGTSATLGITGLQTGDEADYYCGTWDNSLSAVVFGGGTKLTVL
B2: Antibody YU1019-B06 (antibody, human IgG1, V domains shown)
VH: EVQLLESGGGVVQPGRSLRLSCAASGFTFSSYAMHWVRQAPGKGLEWVAVISYDGSNKYYADSVKGRFTISRDNSKNTLYLQMNSLRAEDTAVYYCASPVLRYFDWLPNYWGQGTLVTVSS
VL: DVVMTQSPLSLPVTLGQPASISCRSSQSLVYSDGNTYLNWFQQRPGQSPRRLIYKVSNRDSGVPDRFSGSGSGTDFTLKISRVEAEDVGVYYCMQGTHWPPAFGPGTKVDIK
B3: Antibody YU1018-E04 (antibody, human IgG1, V domains shown)
VH: QVQLVQSGAEVKKPGESLKISCKGSGYSFTSYWIGWVRQMPGKGLEWMGIIYPGDSDTRYSPSFQGQVTISADKSISTAYLQWSSLKASDTAMYYCARAIVGATSGYWFDPWGQGTLVTVSS
VL: not shown
B4: Antibody YU1018-G01 (antibody, human IgG1, V domains shown)
VH: QVQLVQSGAEVKKPGASVKVSCKASGYTFTSYAMHWVRQAPGQRLEWMGWINAGNGNTKYSQKFQGRVTITRDTSASTAYMELSSLRSEDTAVYYCARGRELLTFDYWGQGTLVTVSS
VL: not shown
B5: Antibody YU1018-D06 (antibody, human IgG1, V domains shown)
VH: QVQLVESGPGLVKPSQTLSLTCTVSGGSISSGGYYWSWIRQHPGKGLEWIGYIYYSGSTYYNPSLKSRVTISVDTSKNQFSLKLSSVTAADTAVYYCARSGAAGIPWFDPWGQGTLVTVSS
VL: B1 VL with G26S, S28N, V40L, P44A, D51E, K54E, A56P, F63L, G75A, N94S
B6: Antibody YU1018-D08 (antibody, human IgG1, V domains shown)
VH: QVQLVQSGAEVKKPGSSVKVSCKASGGTFSSYAISWVRQAPGQGLEWMGGIIPIFGTANYAQKFQGRVTITADKSTSTAYMELSSLRSEDTAVYYCARDRYYDSSGYYLMDPWGQGTLVTVSS
VL: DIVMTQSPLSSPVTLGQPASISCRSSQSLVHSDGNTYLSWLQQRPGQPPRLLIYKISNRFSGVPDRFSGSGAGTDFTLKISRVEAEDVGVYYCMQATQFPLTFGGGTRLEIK
B7: Antibody YU1018-E01 (antibody, human IgG1, V domains shown)
VH: QVQLVQSGAEVKKPGASVKVSCKASGYTFTSYGISWVRQAPGRGLEWMGWISAYNGNTNYAQKLQGRVTMTTDTSTSTAYMELRSLRSDDTAVYYCARGPRDGYNDYWGQGTLVTVSS
VL: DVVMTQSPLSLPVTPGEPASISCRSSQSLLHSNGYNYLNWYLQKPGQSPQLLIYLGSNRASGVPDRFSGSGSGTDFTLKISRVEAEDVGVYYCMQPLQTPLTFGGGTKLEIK
B8: Antibody YU1018-E07 (antibody, V domains shown)
VH: B2 VH with L116T
VL: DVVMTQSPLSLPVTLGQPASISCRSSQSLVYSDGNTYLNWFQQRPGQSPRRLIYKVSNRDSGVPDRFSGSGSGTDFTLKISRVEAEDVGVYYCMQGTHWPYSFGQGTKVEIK
B9: Antibody YU1018-C11 (antibody, V domains shown)
VH: QVQLVQSGGGLVQPGGSLRLSCAASGFTFSSYAMSWVRQAPGKGLEWVSAISGSGGSTYYADSVKGRFTISRDNSKNTLYLQMNSLRAEDTAVYYCARGGFWGSYRYWSAAFDIWGQGTMVTVSS
VL: not shown
B10: Antibody YU1018-D12 (antibody, V domains shown)
VH: EVQLVQSGAEVKKPGASVKVSCKASGYTFTSYGISWVRQAPGQGLEWMGWISAYNGNTNYAQKLQGRVTMTTDTSTSTAYMELRSLRSDDTAVYYCARDVGYSYGIFDYWGQGTLVTVSS
VL: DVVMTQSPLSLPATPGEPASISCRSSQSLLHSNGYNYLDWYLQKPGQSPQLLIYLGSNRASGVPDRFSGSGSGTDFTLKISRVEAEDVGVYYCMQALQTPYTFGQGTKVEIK

These binders were tested against T1, native human NBL1 (assay: immunotargeted assay on permeabilized human PBMCs, FACS).
Source text: PBMCs were isolated from blood samples of healthy volunteers.

Binding result, binds:
B1, B2, B3

The binders below were run against T2, mouse NBL1 (assay: ELISA, IgG1 format).

Binding result, binds:
B4, B1, B5, B6, B7, B2, B8, B9, B10, B3

Each binder was assayed against T3, native murine NBL1 (assay: immunotarget assay on permeabilized murine splenocytes, FACS).

Binding result, binds:
B2, B3

The binders below were run against T3, native murine NBL1 (assay: sandwich ELISA on native murine plasma NBL1).
Procedure: Binding of the mAbs to native murine plasma NBL1 was performed using a sandwich ELISA, as illustrated in FIG. 11A.

Binding result, binds:
B1
